Assay [1] has as its system Caspase 3, FasL, Fas, and Bax in epithelioid cells and multinucleated giant cells. To be noted: ref [45]; cited from earlier work.
In assay [2] the target is T1, TBK1 (Homo sapiens, UniProt Q9UHD2).
T1 sequence (Q9UHD2 1-729): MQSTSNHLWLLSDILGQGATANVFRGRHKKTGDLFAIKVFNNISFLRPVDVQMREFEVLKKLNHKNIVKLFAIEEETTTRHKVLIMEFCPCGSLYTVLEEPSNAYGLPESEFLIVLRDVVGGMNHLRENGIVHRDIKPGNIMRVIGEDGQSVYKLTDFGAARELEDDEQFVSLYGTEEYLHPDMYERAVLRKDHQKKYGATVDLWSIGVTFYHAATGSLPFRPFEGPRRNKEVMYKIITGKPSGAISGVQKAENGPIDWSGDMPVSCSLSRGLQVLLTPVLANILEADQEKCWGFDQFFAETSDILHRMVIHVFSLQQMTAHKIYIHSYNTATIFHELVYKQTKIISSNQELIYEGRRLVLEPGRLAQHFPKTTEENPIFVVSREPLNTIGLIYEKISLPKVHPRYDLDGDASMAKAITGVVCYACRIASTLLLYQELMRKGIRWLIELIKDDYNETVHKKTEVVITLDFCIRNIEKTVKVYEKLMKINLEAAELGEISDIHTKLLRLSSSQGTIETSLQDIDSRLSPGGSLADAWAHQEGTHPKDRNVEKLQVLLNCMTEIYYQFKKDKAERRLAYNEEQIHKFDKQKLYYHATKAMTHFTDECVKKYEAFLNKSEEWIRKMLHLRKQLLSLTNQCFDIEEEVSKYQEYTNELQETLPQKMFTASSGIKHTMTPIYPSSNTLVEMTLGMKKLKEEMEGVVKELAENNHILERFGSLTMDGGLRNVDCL
In kind it is binding.

In assay [3] the test system is apoptosis and inflammation. The following applies: ref [10],[11]; cited from earlier work.
For assay [4], the system named is murine macrophages and patients with TB. To be noted: ref [10],[11]; cited from earlier work.
Assay [5] relates to HK2. It counts as binding.

B1: MPT64: secretory immunodominant antigen of MTB, located in the RD2 region (protein)
chain: APKTYCEELKGTDTGQACQIQMSDPAYNINISLPSYYPDQKSLENYIAQTRDKFLSAATSSTPREAPYELNITSATYQSAIPPRGTQAVVLKVYQNAGGTHPTTTYKAFDWDQAYRKPITYDTLWQADTDPLPVVFPIVQGELSKQTGQQVSIAPNAGLDPVNYQNFAVTNDGVIFFFNPGELLPEAAGPTQVLVPRSAIDSMLA
For the molecule B1, the “relation to expression of apoptotic factors” value in assay [1] was “related to the expression of apoptotic factors, such as Caspase 3, FasL, Fas, and Bax”. In assay [2], the “region of MPT protein binding TBK1” value is “The N-terminal domain of MPT64 interacted with TBK1, and the core peptide sequences for binding were 24–28 and 34–38 peptides”. For the same molecule, in assay [3], the “apoptosis, TGF-β expression and inflammation” value is “reduced apoptosis by increasing the expression of TGF-β and reducing inflammation”. Further, in assay [4], the “production of IFN-γ” value is “induced the production of IFN-γ in murine macrophages and patients with TB”. In addition, in assay [5], the “domain of HK2 required for binding” value is “HK2 domain in HK2 were found to be essential for their interaction with MPT64”; the “region of MPT64 binding HK2” value is “The C-terminal of MPT64 was associated with HK2 and its essential peptides were located between 187–193”.
